Data on 5 molecules can be found in patent EP1739090A2 (Biogen Idec MA Inc., dated 2007).

Assay [1] concerns the target T1, IFNAR2/Fc fusion protein (extracellular domain of the human IFNAR2 receptor chain fused to the hinge, CH2 and … (human, UniProt P48551 27-243)).
T1 construct: extracellular domain; Expressed in CHO cells, purified on protein A, captured on plates by mouse anti-human IgG1 mAb CDG5-AA9; also called IFNAR2-ectodomain/Fc fusion protein; IFNAR/Fc; not shown: human IgG1 heavy chain constant region: hinge, CH2 and CH3 domains
T1 sequence (looked up): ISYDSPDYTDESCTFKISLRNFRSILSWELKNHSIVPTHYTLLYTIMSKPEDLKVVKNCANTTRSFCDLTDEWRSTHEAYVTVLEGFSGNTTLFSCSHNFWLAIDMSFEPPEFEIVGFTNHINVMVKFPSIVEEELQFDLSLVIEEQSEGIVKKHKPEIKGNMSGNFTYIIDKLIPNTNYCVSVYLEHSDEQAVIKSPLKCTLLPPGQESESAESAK
Put plainly: ELISA on captured IFNAR2/Fc; reference of the assay, EC50 not given.

Assay [2] concerns the target T2, type I interferon cell surface receptor complex (IFNAR1/2 complex) expressed on Daudi Burkitt's lymphoma cells (human, UniProt P17181 28-557; P48551 27-515).
T2 construct: whole, on cells; Endogenous receptor of human Daudi cells; both chains together comprise the receptor for interferon-beta; also called IFNAR1/2 cell surface receptor; cognate receptor on Daudi cells
T2 sequence (looked up) 1: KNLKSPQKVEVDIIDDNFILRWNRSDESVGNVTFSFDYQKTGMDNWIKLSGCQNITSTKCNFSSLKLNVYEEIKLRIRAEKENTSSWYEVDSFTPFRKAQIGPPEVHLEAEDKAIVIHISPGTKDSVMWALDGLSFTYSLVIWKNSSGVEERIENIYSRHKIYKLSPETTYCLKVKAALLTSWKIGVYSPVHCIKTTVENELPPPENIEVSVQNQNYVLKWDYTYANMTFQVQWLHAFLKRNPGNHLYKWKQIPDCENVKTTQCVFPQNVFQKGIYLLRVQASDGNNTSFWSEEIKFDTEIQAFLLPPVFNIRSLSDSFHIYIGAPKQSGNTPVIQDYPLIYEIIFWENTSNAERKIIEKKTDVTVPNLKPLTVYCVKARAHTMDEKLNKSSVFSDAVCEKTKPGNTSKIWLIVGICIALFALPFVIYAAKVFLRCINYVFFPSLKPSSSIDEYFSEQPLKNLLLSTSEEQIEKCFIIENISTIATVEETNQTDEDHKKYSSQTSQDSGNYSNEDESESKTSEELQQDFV
T2 sequence (looked up) 2: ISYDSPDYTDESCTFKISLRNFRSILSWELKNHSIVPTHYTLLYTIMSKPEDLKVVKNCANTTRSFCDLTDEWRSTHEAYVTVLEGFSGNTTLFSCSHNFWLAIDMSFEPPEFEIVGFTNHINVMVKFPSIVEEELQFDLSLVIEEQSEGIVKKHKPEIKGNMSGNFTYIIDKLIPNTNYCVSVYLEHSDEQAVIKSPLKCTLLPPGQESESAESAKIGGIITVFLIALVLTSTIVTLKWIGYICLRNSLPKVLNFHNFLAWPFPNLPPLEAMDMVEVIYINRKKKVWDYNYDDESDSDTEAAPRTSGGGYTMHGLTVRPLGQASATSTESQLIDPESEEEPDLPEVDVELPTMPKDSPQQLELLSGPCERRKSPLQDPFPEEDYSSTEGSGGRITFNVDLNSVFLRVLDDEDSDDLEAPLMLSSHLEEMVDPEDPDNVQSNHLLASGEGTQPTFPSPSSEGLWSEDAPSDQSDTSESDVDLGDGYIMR
The experiment in a line: FACS on Daudi cells, inhibition of EA12 staining; reference of the assay, value not given.

Assay [3] addresses T1, IFNAR2/Fc fusion protein (extracellular …). The experiment in a line: ELISA on IFNAR2/Fc captured by anti-human IgG1 mAb.
For assay [4] the target is unchanged. The experiment in a line: ELISA on captured IFNAR2/Fc.

Changes are numbered by the printed parent chain.

B1: histidine tagged wild-type interferon-beta-1a (ligand)
chain: SGGHHHHHHSSGDDDDKMSYNLLGFLQRSSNFQCQKLLWQLNGRLEYCLKDRMNFDIPEEIKQLQQFQKEDAALTIYEMLQNIFAIFRQDSSSTGWNETIVENLLANVYHQINHLKTVLEEKLEKEDFTRGKLMSSLHLKRYYGRILHYLKAKEYSHCAWTIVRVEILRNFYFINRLTGYLRN
notes: also called his IFN-beta; His6-tagged
B1: the binding result in assay [1] and in assay [2] was “binds” each time.

B2: his tagged-interferon-beta alanine substitution mutant A2 (ligand)
chain: B1 chain with F32A, Q33A, Q35A, K36A, W39A, Q40A
notes: Tested as conditioned medium of EBNA 293 cells
Regarding B2, the binding result in assay [3] is recorded as “no binding”. Further, in assay [4], the “concentration without binding, fold over the w.t. his-IFN-beta EC50” value (“concentration without binding, fold” below) worked out at 500 fold.

B3: his tagged-interferon-beta alanine substitution mutant E (ligand)
chain: B1 chain with V165A, R169A, Y172A, N175A
notes: as for B2
Consider B3, for which the binding result in assay [3] was “no binding”. Moreover, the “concentration without binding, fold” value in assay [4] was > 500 fold.

B4: his tagged-interferon-beta alanine substitution mutant AB1 (ligand)
chain: B1 chain with L45A, E46A, Y47A, L49A, K50A
notes: as for B2
For B4, the binding result in assay [3] is “no binding”. Besides, the “concentration without binding, fold” value in assay [4] is > 500 fold.

B5: his tagged-interferon-beta alanine substitution mutant AB2 (ligand)
chain: B1 chain with M53A, N54A, D56A, E59A
notes: as for B2
As for B5, in assay [3], the binding result is recorded as “no binding”. Moreover, the “concentration without binding, fold” value in assay [4] is > 500 fold.
